For the assay, the target named is RseP of E. faecalis LMG3358 (membrane-bound Zn-dependent site-2 protease) (E. faecalis) (UniProt Q9RPP2).
Sequence of UniProt Q9RPP2 (Q9RPP2 whole entry): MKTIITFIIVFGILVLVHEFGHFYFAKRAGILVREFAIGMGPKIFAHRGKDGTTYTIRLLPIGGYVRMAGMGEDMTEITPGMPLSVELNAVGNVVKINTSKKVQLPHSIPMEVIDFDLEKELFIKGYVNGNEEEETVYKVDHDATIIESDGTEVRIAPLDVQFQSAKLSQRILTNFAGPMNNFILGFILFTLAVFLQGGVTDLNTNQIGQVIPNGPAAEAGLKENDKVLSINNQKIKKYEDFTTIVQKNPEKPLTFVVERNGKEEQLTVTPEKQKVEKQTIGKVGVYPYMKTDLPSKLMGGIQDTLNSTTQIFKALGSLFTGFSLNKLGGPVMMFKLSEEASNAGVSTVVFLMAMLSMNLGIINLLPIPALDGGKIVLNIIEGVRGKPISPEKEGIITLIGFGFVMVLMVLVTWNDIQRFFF

Enterocin EJ97 (peptide) gave an MIC (nM) of the bacteriocin against S. pneumoniae ds220 induced to express E. faecalis rseP (microtiter plate growth inhibition; non-induced cells and cells without rseP >4500 nM) of 18 nM.
As to Enterocin K1 (peptide), the MIC (nM) of the bacteriocin against S. pneumoniae ds220 induced to express E. faecalis rseP (microtiter plate growth inhibition; non-induced cells and cells without rseP >5500 nM) worked out at 700 nM.

The values above are taken from publication PMC5413573.
